Laboratory results reported in the supplement of paper PMC9112550, “Optimization of the antimicrobial peptide Bac7 by deep mutational scanning” (BMC Biology, 2022).
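Further: peptides expressed intracellularly from a pBAD plasmid library in pooled LB shake-flask culture, induced with 0.3% L-arabinose, DNA abundance read by NGS, three biological replicates, DESeq2 with apeglm shrinkage.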

Each sequence was assayed on Escherichia coli TOP10 (assay: shrunken log2 fold change of peptide-encoding DNA abundance (4.5 h post-induction vs induction); higher = less antimicrobial activity (less host growth inhibition)). Details: time post-induction: 4.5 h; library: site-saturation at positions 5, 18, 19, 20.
RRIRRRPPRLPRPRPRPPRLPRP was tested, and the “shrunken log2 fold change” value was 1.1. In the case of RRIRERPPRLPRPRPRPYEQPRP, the “shrunken log2 fold change” value was -0.395. RRIRFRPPRLPRPRPRPSKSPRP was tested, and the “shrunken log2 fold change” value was -0.123. RRIRHRPPRLPRPRPRPGEDPRP was tested, and the “shrunken log2 fold change” value was 0.0147. In the case of RRIRYRPPRLPRPRPRPIQAPRP, the “shrunken log2 fold change” value was 0.107. In the case of RRIRYRPPRLPRPRPRPWDFPRP, the “shrunken log2 fold change” value was -0.0206. In the case of RRIRARPPRLPRPRPRPDLYPRP, the “shrunken log2 fold change” value was 0.00132. With RRIRPRPPRLPRPRPRPWHTPRP the “shrunken log2 fold change” value was -0.087. With RRIRARPPRLPRPRPRPTMMPRP the “shrunken log2 fold change” value was 0.496. In the case of RRIRTRPPRLPRPRPRPHASPRP, the “shrunken log2 fold change” value was -0.033. For RRIRIRPPRLPRPRPRPHPNPRP, the “shrunken log2 fold change” value was -0.404. For RRIRDRPPRLPRPRPRPHTCPRP, the “shrunken log2 fold change” value was -0.0522. For RRIRPRPPRLPRPRPRPDCPPRP, the “shrunken log2 fold change” value was -0.0368. In the case of RRIRVRPPRLPRPRPRPNYNPRP, the “shrunken log2 fold change” value was -0.76. In the case of RRIRGRPPRLPRPRPRPKFPPRP, the “shrunken log2 fold change” value was 0.251. RRIRQRPPRLPRPRPRPCMMPRP was tested, and the “shrunken log2 fold change” value was -0.498. RRIRMRPPRLPRPRPRPVFKPRP was tested, and the “shrunken log2 fold change” value was -0.111. With RRIRWRPPRLPRPRPRPEAQPRP the “shrunken log2 fold change” value was 0.779. For RRIRYRPPRLPRPRPRPWRMPRP, the “shrunken log2 fold change” value was -0.369. RRIRIRPPRLPRPRPRPPHLPRP was tested, and the “shrunken log2 fold change” value was -0.14. For RRIRDRPPRLPRPRPRPMKNPRP, the “shrunken log2 fold change” value was -0.0366. For RRIRTRPPRLPRPRPRPSELPRP, the “shrunken log2 fold change” value was -0.255. With RRIRQRPPRLPRPRPRPHHKPRP the “shrunken log2 fold change” value was -0.205. RRIRIRPPRLPRPRPRPMFLPRP was tested, and the “shrunken log2 fold change” value was -0.624. For RRIRIRPPRLPRPRPRPNQRPRP, the “shrunken log2 fold change” value was 0.00427. With RRIRKRPPRLPRPRPRPVGAPRP the “shrunken log2 fold change” value was 0.853. With RRIRFRPPRLPRPRPRPCLWPRP the “shrunken log2 fold change” value was -0.0174. With RRIRQRPPRLPRPRPRPKTCPRP the “shrunken log2 fold change” value was -0.0119. For RRIRWRPPRLPRPRPRPASQPRP, the “shrunken log2 fold change” value was 0.271. In the case of RRIRTRPPRLPRPRPRPAKCPRP, the “shrunken log2 fold change” value was 0.0582. For RRIRDRPPRLPRPRPRPKEDPRP, the “shrunken log2 fold change” value was 0.337. RRIRTRPPRLPRPRPRPFYRPRP was tested, and the “shrunken log2 fold change” value was -0.189. RRIRPRPPRLPRPRPRPDITPRP was tested, and the “shrunken log2 fold change” value was -0.783. RRIRTRPPRLPRPRPRPRTWPRP was tested, and the “shrunken log2 fold change” value was -0.0887. With RRIRDRPPRLPRPRPRPPDEPRP the “shrunken log2 fold change” value was 0.00333. RRIRVRPPRLPRPRPRPPMHPRP was tested, and the “shrunken log2 fold change” value was 0.245. In the case of RRIRARPPRLPRPRPRPYYEPRP, the “shrunken log2 fold change” value was -1.02. For RRIRGRPPRLPRPRPRPKITPRP, the “shrunken log2 fold change” value was 0.413. In the case of RRIRKRPPRLPRPRPRPLLPPRP, the “shrunken log2 fold change” value was 0.227. For RRIRGRPPRLPRPRPRPASRPRP, the “shrunken log2 fold change” value was 0.705. In the case of RRIRIRPPRLPRPRPRPVAKPRP, the “shrunken log2 fold change” value was -0.0157. With RRIRVRPPRLPRPRPRPCNTPRP the “shrunken log2 fold change” value was -0.586. In the case of RRIRIRPPRLPRPRPRPNACPRP, the “shrunken log2 fold change” value was 0.00304. In the case of RRIRCRPPRLPRPRPRPGTWPRP, the “shrunken log2 fold change” value was 0.011. RRIRVRPPRLPRPRPRPAWFPRP was tested, and the “shrunken log2 fold change” value was 0.0841. RRIRARPPRLPRPRPRPLHAPRP was tested, and the “shrunken log2 fold change” value was 0.554. RRIRKRPPRLPRPRPRPWMNPRP was tested, and the “shrunken log2 fold change” value was -0.00146. In the case of RRIRWRPPRLPRPRPRPDCSPRP, the “shrunken log2 fold change” value was 0.113. For RRIRMRPPRLPRPRPRPSADPRP, the “shrunken log2 fold change” value was 3.21. With RRIRDRPPRLPRPRPRPCQWPRP the “shrunken log2 fold change” value was -0.134. In the case of RRIRMRPPRLPRPRPRPDNKPRP, the “shrunken log2 fold change” value was -0.336. With RRIRQRPPRLPRPRPRPQIWPRP the “shrunken log2 fold change” value was 0.0984. For RRIRCRPPRLPRPRPRPKTYPRP, the “shrunken log2 fold change” value was -0.48. In the case of RRIRKRPPRLPRPRPRPHILPRP, the “shrunken log2 fold change” value was 0.0523. For RRIRNRPPRLPRPRPRPYKYPRP, the “shrunken log2 fold change” value was -0.369. RRIRWRPPRLPRPRPRPLQFPRP was tested, and the “shrunken log2 fold change” value was 0.0403. With RRIRHRPPRLPRPRPRPMLSPRP the “shrunken log2 fold change” value was -0.0786. RRIRDRPPRLPRPRPRPRRGPRP was tested, and the “shrunken log2 fold change” value was 0.365. In the case of RRIRHRPPRLPRPRPRPDSAPRP, the “shrunken log2 fold change” value was -0.216. With RRIRWRPPRLPRPRPRPVCPPRP the “shrunken log2 fold change” value was 0.142. In the case of RRIRDRPPRLPRPRPRPRDNPRP, the “shrunken log2 fold change” value was -0.339. RRIRMRPPRLPRPRPRPCYNPRP was tested, and the “shrunken log2 fold change” value was -0.247. In the case of RRIRRRPPRLPRPRPRPVQNPRP, the “shrunken log2 fold change” value was 0.285. With RRIRKRPPRLPRPRPRPFTIPRP the “shrunken log2 fold change” value was 0.0665. RRIRPRPPRLPRPRPRPDHGPRP was tested, and the “shrunken log2 fold change” value was -0.0198. In the case of RRIRFRPPRLPRPRPRPTFKPRP, the “shrunken log2 fold change” value was 0.0617. For RRIRARPPRLPRPRPRPLNAPRP, the “shrunken log2 fold change” value was 0.486. For RRIRARPPRLPRPRPRPMAIPRP, the “shrunken log2 fold change” value was -0.0621. With RRIRERPPRLPRPRPRPSCCPRP the “shrunken log2 fold change” value was 0.294. With RRIRYRPPRLPRPRPRPVFCPRP the “shrunken log2 fold change” value was -0.419. With RRIRHRPPRLPRPRPRPDTNPRP the “shrunken log2 fold change” value was 0.102. In the case of RRIRFRPPRLPRPRPRPLYTPRP, the “shrunken log2 fold change” value was -0.58. RRIRKRPPRLPRPRPRPYMYPRP was tested, and the “shrunken log2 fold change” value was -0.445. With RRIRMRPPRLPRPRPRPKSIPRP the “shrunken log2 fold change” value was 0.301. With RRIRTRPPRLPRPRPRPHKGPRP the “shrunken log2 fold change” value was 0.0731.
